For one test, the target named is T1, Human CD39-L4 (human, UniProt O75356 25-428).
T1 construct: Recombinant protein coated in ELISA; also called NTPDase5; ENTPD5
T1 sequence: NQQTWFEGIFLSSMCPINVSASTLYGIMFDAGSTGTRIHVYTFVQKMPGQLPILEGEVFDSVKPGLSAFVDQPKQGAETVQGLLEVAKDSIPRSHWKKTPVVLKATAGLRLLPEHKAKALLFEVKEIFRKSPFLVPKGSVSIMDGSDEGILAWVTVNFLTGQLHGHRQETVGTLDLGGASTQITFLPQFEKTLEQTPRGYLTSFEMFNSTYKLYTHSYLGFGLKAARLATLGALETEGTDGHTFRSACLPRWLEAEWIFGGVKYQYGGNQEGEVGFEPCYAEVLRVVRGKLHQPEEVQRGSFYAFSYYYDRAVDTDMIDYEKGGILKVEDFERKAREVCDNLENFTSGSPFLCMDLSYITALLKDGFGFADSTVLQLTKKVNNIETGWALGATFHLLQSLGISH
The test can be described thus: ELISA on coated recombinant human CD39-L4 [panel huCD39 L4]. On the procedure: (§1) Wells were washed in TBS Tween 20, and further saturated 2H at RT in TBS Blocking buffer. Dose range concentration of primary antibody was incubated in TBS blocking buffer for 2 h at RT. Wells were washed in TBS Tween 20. […] Optical density was measured on Enspire™ at OD=450.
For orientation: ELISA stands for enzyme-linked immunosorbent assay.

The next test concerns the target T2, Human CD39-L3 (human, UniProt O75355 44-485, limits assumed).
T2 construct: Recombinant protein coated in ELISA; also called NTPDase3; ENTPD3
T2 sequence: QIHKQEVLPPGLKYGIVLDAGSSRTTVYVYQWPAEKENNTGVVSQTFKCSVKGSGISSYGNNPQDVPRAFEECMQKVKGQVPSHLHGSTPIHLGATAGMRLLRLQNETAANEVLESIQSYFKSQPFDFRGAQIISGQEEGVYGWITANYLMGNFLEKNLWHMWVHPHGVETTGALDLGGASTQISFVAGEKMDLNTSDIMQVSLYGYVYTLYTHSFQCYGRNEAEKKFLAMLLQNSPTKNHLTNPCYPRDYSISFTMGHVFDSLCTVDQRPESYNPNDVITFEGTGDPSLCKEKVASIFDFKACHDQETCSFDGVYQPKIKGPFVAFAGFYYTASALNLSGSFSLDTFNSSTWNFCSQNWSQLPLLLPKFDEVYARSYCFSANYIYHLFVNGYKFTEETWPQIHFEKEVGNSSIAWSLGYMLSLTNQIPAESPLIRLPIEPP
The test can be described thus: ELISA on coated recombinant human CD39-L3 [panel huCD39 L3]. On the procedure:
as §1

In test [1] the target is T3, human CD39 expressed on cells (human, UniProt P49961 1-510).
T3 construct: On CHO transfectants, HEK-293T transfectants (wild type), Ramos lymphoma cells or monocyte-derived dendritic cells, as named under assay; also called huCD39; CHO-huCD39
T3 sequence: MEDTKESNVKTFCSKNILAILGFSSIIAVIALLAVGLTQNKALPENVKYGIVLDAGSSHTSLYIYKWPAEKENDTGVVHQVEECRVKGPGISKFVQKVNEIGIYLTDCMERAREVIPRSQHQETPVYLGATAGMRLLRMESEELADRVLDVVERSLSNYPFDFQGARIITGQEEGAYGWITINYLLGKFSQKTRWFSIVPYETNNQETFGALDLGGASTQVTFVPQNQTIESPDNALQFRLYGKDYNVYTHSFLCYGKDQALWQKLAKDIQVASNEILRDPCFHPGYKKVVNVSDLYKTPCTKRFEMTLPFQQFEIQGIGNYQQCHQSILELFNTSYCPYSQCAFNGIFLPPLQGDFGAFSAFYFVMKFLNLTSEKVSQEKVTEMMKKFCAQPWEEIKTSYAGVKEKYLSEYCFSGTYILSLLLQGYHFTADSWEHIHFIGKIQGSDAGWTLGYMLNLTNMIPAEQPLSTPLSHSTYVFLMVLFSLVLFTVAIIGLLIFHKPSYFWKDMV
The test can be described thus: flow cytometry on Hek-293T cells transfected with wild-type CD39 (unstained cells, US: 10,3) [panel WT]. In general terms: In flow cytometry, cells or beads pass a laser one at a time.

The target in test [2] is T4, recombinant human CD39-M2 extracellular domain protein (human, UniProt P49961 38-478).
T4 sequence: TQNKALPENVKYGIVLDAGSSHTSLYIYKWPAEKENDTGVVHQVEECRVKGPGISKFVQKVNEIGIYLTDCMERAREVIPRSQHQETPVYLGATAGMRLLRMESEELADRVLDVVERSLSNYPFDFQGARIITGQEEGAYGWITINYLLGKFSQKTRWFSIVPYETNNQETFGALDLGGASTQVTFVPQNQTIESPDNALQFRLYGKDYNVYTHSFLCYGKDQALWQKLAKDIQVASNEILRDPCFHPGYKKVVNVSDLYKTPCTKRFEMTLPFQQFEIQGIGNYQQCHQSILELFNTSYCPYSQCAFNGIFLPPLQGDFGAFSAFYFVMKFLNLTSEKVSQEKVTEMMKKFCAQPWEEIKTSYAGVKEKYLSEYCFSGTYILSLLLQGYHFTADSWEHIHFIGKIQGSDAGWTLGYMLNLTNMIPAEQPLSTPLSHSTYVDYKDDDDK
The test can be described thus: cell-based or functional assay.

For test [3], the target named is T3, human CD39 expressed on cells. The test can be described thus: cell-based or functional assay.
For test [4] the target is unchanged. The test can be described thus: flow cytometry titration on Ramos lymphoma cells, first experiment; Ramos cells, first set of experiments. On the procedure:
Cells were incubated with various concentration of unlabeled anti-CD39 antibody from 30 μg/ml to 5×10⁻⁴ μg/ml, for 30 minutes at 4° C. After washes, cells were incubated with Goat anti-mouse H+L labeled secondary antibody for 30 min at 4° C.

B1: antibody I-394 (antibody, human IgG1, kappa, V domains shown)
VH: EVQLQQSGPELVKPGASVKMSCKASGYTFTDYNMHWVKQSHGRTLEWIGYIVPLNGGSTFNQKFKGRATLTVNTSSRTAYMELRSLTSEDSAAYYCARGGTRFAYWGQGTLVTVSA
VL: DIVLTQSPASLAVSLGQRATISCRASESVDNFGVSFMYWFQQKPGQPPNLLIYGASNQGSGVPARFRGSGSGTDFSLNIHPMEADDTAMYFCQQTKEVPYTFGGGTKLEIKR
notes: The hybridoma-derived mouse form was used in early screening
One may read the EC50 as the concentration needed to bring the measured effect to its halfway point. Read a low EC50 as an effect from little substance. Consider B1, for which the binding result with Human CD39-L4 and with Human CD39-L3 was “no binding” throughout. Further, the “Median : Comp-Alexa Fluor 647-A” value in test [1] is 3720. In addition, the “IC50, inhibition of the ATPase activity of soluble CD39 protein” value in test [2] was determined as 0.003 µg/mL. For the same molecule, the “IC50 (inhibition of 50% of the enzymatic activity of CD39 expressed by 50,000 Ramos cells)” value in test [3] worked out at 0.05 µg/mL. Also, the concentration for a half-maximal effect (EC50) in test [4] came out at 0.16 µg/mL.

Values taken from US20190218304A1 (INNATE PHARMA, published 2019).
